B1: lacCONS15 promoter DNA (dsDNA)
DNA 1: CACCCCAGGCTTGACACTTTATGCTTCGGCTCGTATAATGTGTGGAATTGTGAGGAGAGGCGGATAACAATTTCACACAGG
DNA 2: CCTGTGTGAAATTGTTATCCGCCTCTCCTCACAATTCCACACATTATACGAGCCGAAGCATAAAGTGTCAAGCCTGGGGTG
B2: Rv1222ΔC, TMR labelled (domain or fragment)
chain: MADPGSVGHVFRRAFSWLPAQFASQSDAPVGAPRQFRSTEHLSIEAIAAFVDGELRMNAHLRAAHHLSLCAQCAAEVDDQSRARAALRDSHPIRIPSTLLGLLSEIPRCPPEGPSKGSSGGSSQGPPDGAAAGFGDRFADGDGG
modifications: TMR label

Tests used:
[1] = molecular target: Rv1222 G133C (Fe-BABE);E. coli RNAP-σ70 holoenzyme (Mycobacterium tuberculosis …, UniProt L0T905;P0A7Z4;P0A8V2;P0A8T7;P0A800;P00579 1-154;1-329;1-1342;1-1407;2-91;1-613, C70A;C73A;C109G;G133C|); assay: Fe-BABE footprinting
[2] = molecular target: Mycobacterium tuberculosis RNA polymerase core (Mycobacterium tuberculosis, UniProt P9WGZ1;P9WGY9;P9WGY7); assay: fluorescence polarisation

Binder	binding result [1]	Kd [2] [nM]
B1	binds	–
B2	–	72 ± 26

Source: PMC4499140 (Nucleic Acids Research, 2015)
